{"source": "paper PMC5043372", "about": "(2016)", "note": "Non-standard residues stand in square brackets, D forms with d. No end group written: not given here. pY = N[C@@H](Cc1ccc(OP(=O)(O)O)cc1)C(=O)O", "data": [{"molecular_target": "T1, SH2 domain of human CRK (human, UniProt P46108 13-118)", "T1 sequence (P46108 other isoform, or with tags, fused parts or gaps)": "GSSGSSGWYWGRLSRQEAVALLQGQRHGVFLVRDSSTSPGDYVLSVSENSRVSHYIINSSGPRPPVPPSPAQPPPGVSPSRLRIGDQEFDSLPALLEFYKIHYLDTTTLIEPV", "experiment": "ITC", "units": {"Ka": "M⁻¹"}, "values": [{"binder": "DL[pY]QVPPG", "note": "[Bcar1 Y169]", "Ka": 460000}, {"binder": "AE[pY]QVPTS", "note": "[Dok7 Y396]", "Ka": "2.34e+06"}]}, {"molecular_target": "T2, SH2 domain of human CRKL (human, UniProt P46109 14-102)", "T2 sequence (P46109 other isoform, or with tags, fused parts or gaps)": "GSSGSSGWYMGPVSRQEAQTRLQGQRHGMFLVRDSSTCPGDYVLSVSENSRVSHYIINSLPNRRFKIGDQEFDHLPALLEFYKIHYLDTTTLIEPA", "experiment": "ITC", "units": {"Ka": "M⁻¹"}, "values": [{"binder": "HH[pY]DTPRS", "note": "[phosphotyrosyl peptide from M. musculus Dok7 (Y406)]", "Ka": "9.16e+06"}, {"binder": "AE[pY]QVPTS", "note": "[Dok7 Y396]", "Ka": "1.53e+06"}]}, {"molecular_target": "T3, SH2 domain of Monosiga brevicollis crka1 (Monosiga brevicollis, UniProt A0A1C9VNP8 1-97)", "T3 chain": "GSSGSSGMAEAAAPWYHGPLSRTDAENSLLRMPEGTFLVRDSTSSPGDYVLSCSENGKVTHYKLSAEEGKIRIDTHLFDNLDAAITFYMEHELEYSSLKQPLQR", "experiment": "ITC", "units": {"Ka": "M⁻¹"}, "values": [{"binder": "HH[pY]DTPRS", "note": "[phosphotyrosyl peptide from M. musculus Dok7 (Y406)]", "Ka": 116000}, {"binder": "AE[pY]QVPTS", "note": "[Dok7 Y396]", "Ka": 23300}]}, {"molecular_target": "T1, SH2 domain of human CRK", "experiment": "ITC", "remark": "another data set of the same source", "units": {"Kd": "µM"}, "values": [{"binder": "DL[pY]DVPPG", "note": "[p130Cas (Bcar1) Y376 peptide DL-pYDVP-PG]", "Kd": 4.83}, {"binder": "SV[pY]ESPYS", "note": "[ZAP70 Y315 peptide SV-pYESP-YS]", "Kd": 4.44}, {"binder": "SN[pY]MAPYD", "note": "[PDGFRB Y771 peptide SN-pYMAP-YD]", "Kd": 25.1}, {"binder": "EV[pY]DTPPM", "note": "[p130Cas (Bcar1) Y271 peptide EV-pYDTP-PM]", "Kd": 1.07}, {"binder": "GP[pY]AQPSV", "note": "[CRK Y221 peptide GP-pYAQP-SV]", "Kd": 10.2}, {"binder": "DV[pY]DVPPS", "note": "[p130Cas (Bcar1) Y291 peptide DV-pYDVP-PS]", "Kd": 0.455}, {"binder": "SR[pY]QQPFE", "note": "[PLCG1 Y1253 peptide SR-pYQQP-FE]", "Kd": 6.45}, {"binder": "AE[pY]QVPTS", "note": "[Dok7 (Y396) peptide AE-pYQVP-TS]", "Kd": 0.427}, {"binder": "PN[pY]MFPSQ", "note": "[ROR1 Y789 peptide PN-pYMFP-SQ]", "Kd": 8.85}, {"binder": "HH[pY]DTPRS", "note": "[phosphotyrosyl peptide from M. musculus Dok7 (Y406)]", "Kd": 0.0602}, {"binder": "HV[pY]SFPNK", "note": "[paxillin (PXN) Y118 peptide HV-pYSFP-NK]", "Kd": 2.48}, {"binder": "SV[pY]DVPPS", "note": "[p130Cas (Bcar1) Y310 peptide SV-pYDVP-PS]", "Kd": 0.649}, {"binder": "SL[pY]DRPAS", "note": "[PDGFRA Y762 peptide SL-pYDRP-AS]", "Kd": 0.98}, {"binder": "DL[pY]QVPPG", "note": "[p130Cas (Bcar1) Y169 peptide DL-pYQVP-PG]", "Kd": 2.17}, {"binder": "QQ[pY]SSPGL", "note": "[EPHB6 Y635 peptide QQ-pYSSP-GL]", "Kd": 5.21}, {"binder": "PH[pY]FVLTS", "note": "[PLCG1 Y509 peptide PH-pYFVL-TS]", "Kd": 8.93}, {"binder": "DE[pY]DTPRH", "note": "[phosphotyrosyl peptide from M. musculus Bcar1 (p130Cas, Y238)]", "Kd": 0.127}]}, {"molecular_target": "T2, SH2 domain of human CRKL", "experiment": "ITC", "remark": "another data set of the same source", "units": {"Kd": "µM"}, "values": [{"binder": "DV[pY]DVPPS", "note": "[p130Cas (Bcar1) Y291 peptide DV-pYDVP-PS]", "Kd": 1.06}, {"binder": "SR[pY]QQPFE", "note": "[PLCG1 Y1253 peptide SR-pYQQP-FE]", "Kd": 9.8}, {"binder": "AE[pY]QVPTS", "note": "[Dok7 (Y396) peptide AE-pYQVP-TS]", "Kd": 0.654}, {"binder": "HH[pY]DTPRS", "note": "[phosphotyrosyl peptide from M. musculus Dok7 (Y406)]", "Kd": 0.109}, {"binder": "DE[pY]DTPRH", "note": "[phosphotyrosyl peptide from M. musculus Bcar1 (p130Cas, Y238)]", "Kd": 0.368}]}, {"molecular_target": "T3, SH2 domain of Monosiga brevicollis crka1", "experiment": "ITC", "remark": "another data set of the same source", "units": {"Kd": "µM"}, "values": [{"binder": "DM[pY]DVPRN", "note": "[phosphopeptide DM-pYDVP-RN of S. rosetta PTSG_05573]", "Kd": 61.7}, {"binder": "AE[pY]QVPTS", "note": "[Dok7 (Y396) peptide AE-pYQVP-TS]", "Kd": 42.9}, {"binder": "LN[pY]ENLPS", "note": "[FRS2 Y349 peptide LN-pYENL-PS]", "Kd": 126}, {"binder": "HH[pY]DTPRS", "note": "[phosphotyrosyl peptide from M. musculus Dok7 (Y406)]", "Kd": 8.62}, {"binder": "EM[pY]DVPRS", "note": "[phosphopeptide EM-pYDVP-RS of S. rosetta PTSG_05573]", "Kd": 118}, {"binder": "DE[pY]DTPRH", "note": "[phosphotyrosyl peptide from M. musculus Bcar1 (p130Cas, Y238)]", "Kd": 10.1}]}]}
